First the molecules themselves.
T1: soluble Homo sapiens CD131 comprising a C-terminal 6xHis tag (human, UniProt P32927 17-438)
T1 construct: truncated after Ser438, C-terminal 6xHis; also called shCD131; shβc
T1 sequence: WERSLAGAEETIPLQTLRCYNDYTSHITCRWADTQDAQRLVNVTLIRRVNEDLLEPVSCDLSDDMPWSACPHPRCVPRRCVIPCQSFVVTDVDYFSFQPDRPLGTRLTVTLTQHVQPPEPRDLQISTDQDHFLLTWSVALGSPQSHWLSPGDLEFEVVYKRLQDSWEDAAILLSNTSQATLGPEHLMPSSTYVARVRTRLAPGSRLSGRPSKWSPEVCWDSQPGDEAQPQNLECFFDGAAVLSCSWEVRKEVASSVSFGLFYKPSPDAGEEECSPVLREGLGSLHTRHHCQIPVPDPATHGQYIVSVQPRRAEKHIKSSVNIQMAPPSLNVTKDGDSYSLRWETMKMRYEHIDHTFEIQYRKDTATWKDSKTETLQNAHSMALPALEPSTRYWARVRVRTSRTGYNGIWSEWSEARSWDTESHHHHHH

B1: 9A2-VR24.10 Fab (Fab, V domains shown)
VH: EVQLLESGGGLVQPGGSLRLSCAASGFTFPWYRVHWVRQAPGKGLEWVSSIHTGSQWTYYADSVKGRFTISRDNSKNTLYLQMNSLRAEDTAVYYCARFYDSFFDIWGQGTMVTVSS
VL: DIQMTQSPSSVSASVGDRVTITCRASQGISSWLAWYQQKPGKAPKLLIYAASSLQSGVPSRFSGSGSGTDFTLTISSLQPEDFATYYCQQANSFPITFGQGTRLEIKR
notes: recombinant Fab
B2: 9A2-VR24.55 Fab (Fab, V domains shown)
VH: EVQLLESGGGLVQPGGSLRLSCAASGFTFPWYRVHWVRQAPGKGLEWVSSIRSSGGFTYYNPSVKNRFTISRDNSKNTLYLQMNSLRAEDTAVYYCARFYDSFFDIWGQGTMVTVSS
VL: DIQMTQSPSSVSASVGDRVTITCRASQGISSWLAWYQQKPGKAPKLLIYAASSLQSGVPSRFSGSGSGTDFTLTISSLQPEDFATYYCQQANSFPITFGQGTRLEIKR
notes: recombinant Fab
B3: 9A2-VR24.27 Fab (Fab, V domains shown)
VH: EVQLLESGGGLVQPGGSLRLSCAASGFTFPWYRVHWVRQAPGKGLEWVSSIRSSGGFPYYHQKVKGRFTISRDNSKNTLYLQMNSLRAEDTAVYYCARFYDSFFDIWGQGTMVTVSS
VL: DIQMTQSPSSVSASVGDRVTITCRASQGISSWLAWYQQKPGKAPKLLIYAASSLQSGVPSRFSGSGSGTDFTLTISSLQPEDFATYYCQQANSFPITFGQGTRLEIKR
notes: recombinant Fab
B4: 9A2-VR24.98 Fab (Fab, V domains shown)
VH: EVQLLESGGGLVQPGGSLRLSCAASGFTFPWYRVHWVRQAPGKGLEWVSSIRSSGGFPHYNSVVKGRFTISRDNSKNTLYLQMNSLRAEDTAVYYCARFYDSFFDIWGQGTMVTVSS
VL: DIQMTQSPSSVSASVGDRVTITCRASQGISSWLAWYQQKPGKAPKLLIYAASSLQSGVPSRFSGSGSGTDFTLTISSLQPEDFATYYCQQANSFPITFGQGTRLEIKR
notes: recombinant Fab
B5: 9A2-VR24.57 Fab (Fab, V domains shown)
VH: EVQLLESGGGLVQPGGSLRLSCAASGFTFPWYRVHWVRQAPGKGLEWVSSIRSSGGFTYYNPKVKHRFTISRDNSKNTLYLQMNSLRAEDTAVYYCARFYDSFFDIWGQGTMVTVSS
VL: DIQMTQSPSSVSASVGDRVTITCRASQGISSWLAWYQQKPGKAPKLLIYAASSLQSGVPSRFSGSGSGTDFTLTISSLQPEDFATYYCQQANSFPITFGQGTRLEIKR
notes: recombinant Fab
B6: 9A2-VR24.30 Fab (Fab, V domains shown)
VH: EVQLLESGGGLVQPGGSLRLSCAASGFTFPWYRVHWVRQAPGKGLEWVSSIRSSGGFPYYNRRVKGRFTISRDNSKNTLYLQMNSLRAEDTAVYYCARFYDSFFDIWGQGTMVTVSS
VL: DIQMTQSPSSVSASVGDRVTITCRASQGISSWLAWYQQKPGKAPKLLIYAASSLQSGVPSRFSGSGSGTDFTLTISSLQPEDFATYYCQQANSFPITFGQGTRLEIKR
notes: recombinant Fab
B7: 9A2-VR24.84 Fab (Fab, V domains shown)
VH: EVQLLESGGGLVQPGGSLRLSCAASGFTFPWYRVHWVRQAPGKGLEWVSSIHTHRPWTYYADSVKGRFTISRDNSKNTLYLQMNSLRAEDTAVYYCARFYDSFFDIWGQGTMVTVSS
VL: DIQMTQSPSSVSASVGDRVTITCRASQGISSWLAWYQQKPGKAPKLLIYAASSLQSGVPSRFSGSGSGTDFTLTISSLQPEDFATYYCQQANSFPITFGQGTRLEIKR
notes: recombinant Fab
B8: 9A2-VR24.97 Fab (Fab, V domains shown)
VH: EVQLLESGGGLVQPGGSLRLSCAASGFTFPWYRVHWVRQAPGKGLEWVSSIRSSGGFPYYSLSVKGRFTISRDNSKNTLYLQMNSLRAEDTAVYYCARFYDSFFDIWGQGTMVTVSS
VL: DIQMTQSPSSVSASVGDRVTITCRASQGISSWLAWYQQKPGKAPKLLIYAASSLQSGVPSRFSGSGSGTDFTLTISSLQPEDFATYYCQQANSFPITFGQGTRLEIKR
notes: recombinant Fab
B9: 9A2-VR24.56 Fab (Fab, V domains shown)
VH: EVQLLESGGGLVQPGGSLRLSCAASGFTFPWYRVHWVRQAPGKGLEWVSSIRSSGGFTYYNPAVRGRFTISRDNSKNTLYLQMNSLRAEDTAVYYCARFYDSFFDIWGQGTMVTVSS
VL: DIQMTQSPSSVSASVGDRVTITCRASQGISSWLAWYQQKPGKAPKLLIYAASSLQSGVPSRFSGSGSGTDFTLTISSLQPEDFATYYCQQANSFPITFGQGTRLEIKR
notes: recombinant Fab
B10: 9A2-VR24.44 Fab (Fab, V domains shown)
VH: EVQLLESGGGLVQPGGSLRLSCAASGFTFPWYRVHWVRQAPGKGLEWVSSIRSSGGFPYYHPSVKGRFTISRDNSKNTLYLQMNSLRAEDTAVYYCARFYDSFFDIWGQGTMVTVSS
VL: DIQMTQSPSSVSASVGDRVTITCRASQGISSWLAWYQQKPGKAPKLLIYAASSLQSGVPSRFSGSGSGTDFTLTISSLQPEDFATYYCQQANSFPITFGQGTRLEIKR
notes: recombinant Fab
B11: 9A2-VR24.33 Fab (Fab, V domains shown)
VH: EVQLLESGGGLVQPGGSLRLSCAASGFTFPWYRVHWVRQAPGKGLEWVSSIRSSGGFPYYNHKVKGRFTISRDNSKNTLYLQMNSLRAEDTAVYYCARFYDSFFDIWGQGTMVTVSS
VL: DIQMTQSPSSVSASVGDRVTITCRASQGISSWLAWYQQKPGKAPKLLIYAASSLQSGVPSRFSGSGSGTDFTLTISSLQPEDFATYYCQQANSFPITFGQGTRLEIKR
notes: recombinant Fab
B12: 9A2-VR24.91 Fab (Fab, V domains shown)
VH: EVQLLESGGGLVQPGGSLRLSCAASGFTFPWYRVHWVRQAPGKGLEWVSSIHTHRQVTYYADSVKGRFTISRDNSKNTLYLQMNSLRAEDTAVYYCARFYDSFFDIWGQGTMVTVSS
VL: DIQMTQSPSSVSASVGDRVTITCRASQGISSWLAWYQQKPGKAPKLLIYAASSLQSGVPSRFSGSGSGTDFTLTISSLQPEDFATYYCQQANSFPITFGQGTRLEIKR
notes: recombinant Fab
B13: 9A2-VR24.81 Fab (Fab, V domains shown)
VH: EVQLLESGGGLVQPGGSLRLSCAASGFTFPWYRVHWVRQAPGKGLEWVSSIHTHRNYTYYADSVKGRFTISRDNSKNTLYLQMNSLRAEDTAVYYCARFYDSFFDIWGQGTMVTVSS
VL: DIQMTQSPSSVSASVGDRVTITCRASQGISSWLAWYQQKPGKAPKLLIYAASSLQSGVPSRFSGSGSGTDFTLTISSLQPEDFATYYCQQANSFPITFGQGTRLEIKR
notes: recombinant Fab

This assay has as its target T1, soluble Homo sapiens CD131 comprising a …. Briefly: SPR, Fab over captured shCD131. Here is the method: Binding kinetics were measured using SPR with a BIAcore™ A-100 instrument (GE Healthcare Life Sciences). An anti-C-terminal Hexa-His antibody (3H3) was immobilized on spots 1, 2, 4 and 5 of each flow cell of a CM-5 sensor chip (GE Healthcare Life Sciences) using amine-coupling chemistry (116). […] As shβc is a dimer, kinetics assays were performed with shβc captured on the sensor surface, and purified Fab injected as the analyte. Avidity effects were avoided by the use of Fab rather than whole IgG.
shCD131 was captured on spots 1 and 5 of each flow cell for 2 minutes at a concentration of 0.4 μg/ml. […] For some analysis purified Fab was injected over each flow cell for 3 minutes and dissociation was monitored for a further 10 minutes. Regeneration of the surface was performed after each cycle with a 40 second injection of 25 mM glycine, pH 2.0. The analysis was performed with Fabs at several concentrations between 100 and 0.31 nM, with each concentration analyzed twice and in random order. The analysis was performed at a flow rate of 30 μl/min in HBS-EP buffer (10 mM Hepes, 150 mM NaCl, 3 mM EDTA, 0.005% Tween 20, pH 7.4) at 37° C. Responses from spots 2 and 4 of each flow cell, (in which shβc was not captured, but otherwise treated identically), were subtracted from those of spots 1 and 5 respectively to produce reference subtracted data. Reference subtracted responses from a blank injection comprising buffer alone were subtracted from the resultant sensorgrams to produce double referenced data suitable for kinetic analysis. Double-referenced sensorgrams were fitted using non-linear regression to a model describing 1:1 kinetics, including a term for mass transport limitation. The Rₘₐₓ value was fitted locally to account for slight deviations in the level of sCD131 captured, with association rate (kₐ), dissociation rate (kd) and equilibrium dissociation constant (KD) fitted globally.
Consider B1, for which binding was put at a Kd of 372 pM; the koff (as a rule, the rate constant with which the complex falls apart) came out at 0.00055 s⁻¹; the kon (commonly a measure of how fast the partners come together) was found to be 1.48e+06 M⁻¹ s⁻¹.

For the molecule B2, the Kd (as a rule, the concentration at which binding is half-saturated) worked out at 369 pM; the koff was 0.000942 s⁻¹; the kon was determined as 2.55e+06 M⁻¹ s⁻¹.

Take B3: the dissociation constant Kd amounted to 170 pM, the koff turned out to be 0.000527 s⁻¹ and the on-rate (kon) worked out at 3.1e+06 M⁻¹ s⁻¹.

B4 gave a Kd of 174 pM, a koff of 0.000559 s⁻¹ and a kon of 3.21e+06 M⁻¹ s⁻¹.

B5 displayed a Kd of 211 pM, a dissociation rate constant (koff) of 0.000841 s⁻¹ and a kon of 4e+06 M⁻¹ s⁻¹.

Turning to B6, binding was characterised by a dissociation constant (Kd) of 122 pM, the koff came to 0.000464 s⁻¹ and the kon turned out to be 3.8e+06 M⁻¹ s⁻¹.

In turn, B7 gave a dissociation constant Kd of 106 pM, a koff of 0.000418 s⁻¹ and a kon of 3.95e+06 M⁻¹ s⁻¹.

As to B8, the dissociation constant Kd came out at 160 pM, the koff is 0.000524 s⁻¹ and the kon came to 3.2e+06 M⁻¹ s⁻¹.

As for B9, binding was put at a Kd of 353 pM, the koff was 0.000997 s⁻¹ and the kon was determined as 2.82e+06 M⁻¹ s⁻¹.

For the molecule B10, binding was put at a Kd of 163 pM, the koff amounted to 0.000488 s⁻¹ and the on-rate (kon) is 3e+06 M⁻¹ s⁻¹.

On to B11, for which the Kd came out at 150 pM, the koff worked out at 0.000472 s⁻¹ and the kon is 3.16e+06 M⁻¹ s⁻¹.

Molecule B12 came in with a Kd of 161 pM, a koff of 0.000448 s⁻¹ and a kon of 2.78e+06 M⁻¹ s⁻¹.

In turn, B13 registered a Kd of 173 pM, an off-rate constant (koff) of 0.000492 s⁻¹ and a kon of 2.85e+06 M⁻¹ s⁻¹.
